Tested on: TβRII receptors (TβRII-A, TβRII-B and TβRII-SE) mRNA in hASCs
Assay: RT-PCR / qRT-PCR of TβRII isoform mRNA in transduced hASC
Format: cell-based, human
Description: To further assess the agonistic role of the TβRII-SE isoform, hASCs were transduced with Lt-TβRII-SE, Lt-TβRIIA-DN, and Lt.eGFP, at an MOI of 150 as described in the examples. Seventy two hours after transduction the percentage of eGFP expressing cells was measured by flow cytometry (FIG. 11A).
mRNA levels of all three isoforms of Type II TGF-β receptor were also quantified by qRT-PCR (FIG. 13).
Total RNA from different primary cultures and cell lines was isolated using the Absolutely RNA kit (Stratagene, La Jolla, Calif., USA). First-strand cDNA was synthesized by mixing 1 μg of DNA free total RNA, 50 pmol primer p(DT)15 (Roche Diagnostics GmbH, Mannheim, Germany), 0.5 mM deoxyribonucleotide triphosphate, 5 mM dithiothreitol, and 1 U Expand Reverse Transcriptase (Roche Diagnostics GmbH). cDNA corresponding to different isoforms of TβRII receptor was detected by PCR amplification in the presence of Expand High Fidelity polymerase (Roche Diagnostics GmbH), 0.2 mM dNTPS, and 0.5 μM of each primer (forward: 5′[…]3′ (SEQ ID No. 10) and reverse: 5′[…]3′ (SEQ ID No. 11) for 35 cycles using the following PCR conditions: 1 min. at 95° C., 1 min. at 55° C., and 1 min. at […]

B1: TβRII-SE: 80 amino acid soluble endogenous isoform of human TGF-β receptor II lacking the transmembrane domain, SEQ ID No. 2 (protein, listed as Homo sapiens)
chain: MGRGLLRGLWPLHIVLWTRIASTIPPHVQKSVNNDMIVTDNNGAVKFPQLCKFCDVRFSTCDNQKSCFSKVHYEGKKKAW
- TβRII isoform A expression (RT-PCR, 582 bp band) (transduced hASC): downregulates TβRII isoform A expression
- TβRII-A and B variants mRNA levels (qRT-PCR) (transduced hASC vs untransduced): decreased dramatically

Reference: patent US11072647B2, “TGF-receptor II isoform, fusion peptide, methods of treatment and methods in vitro” (Onsejo Nacional DE Investigation Cientiticay Tecnica, priority 2013, dated 2021)
